Measurements from the NTF2 design screens of Basanta et al. (2020).

Assay: protease stability score; higher = more stable; yeast display proteolysis, trypsin and chymotrypsin;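 note: relative to predicted unfolded state with 0 unfolded-like and 1 meaning tenfold more protease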

| Sequence | protease stability score |
| --- | --- |
| DEDRKEAERIARQTLHDLRTGNEDMLTKLLDPHARIDVNGVDNIGWEIIVKHVKERRHQWRIHHEHWRDYHFINGVIHIDLEVHIRVDGVDIRTETRVHILIINGRLREIRVEVD | 0.772 |
| DEDRKEMEEILRLYLEAFLTGDEKLLRHLVDPHVKLDINGVRLHGMDLLIKLLIHEARFFKGMKVEIRIHRVHVQGDKVENDTELILIFDGREFRRRTFLLWLKIDGRWLLESERIE | 1.45 |
| DEDRKHIHHMFELWVHFLHTGNEHQLINLVDPHVKLEIGDKHHHGWEQLETFERAFKKEFKHMKIRFELTDIRLINGRMEIDGRDHLHIGDKTIERHLHLVVTKVDGRWQIHSVIVD | 1.48 |
| DEDRKHMEQAITLLKRLWETGNEEDILKNLDPNVRFEVGEWVDHGRRSIEIFRERFKNLRVHDTRHKDRDVVDGRAHLHGEYNGEINGRLINTHVILVIEKVNGRWYFESIHIH | 1.19 |
| DEDRKHREHLSELFQKLWLTGDWRTLWRLLDPHVRLEVLIDGKRIEKIGRENISEMLHRFLEFLGVDHRELHDMEIQGDKVHLDERIHYNGREQKLHIEFKFINGRMHEIKIRYE | 1.58 |
| DEDRKHWETLLKIAFHLFRTGDEEKWERMFDPHARLHINGKDIHGREDIVHFLQEHLDHLWIEDVKVERMSVYNGVLHVDIRIHYRQGDKVYDVESSIDNIVIDGKSHRIRFDFH | 1.26 |
| DEDRKIFKLVFEITKHAWETGDEEHLDRLLDPNTRIEIGDKILHGREHIEEWVDRVDHLHLHHFRLDDYRYQGDKAIIHGHVNGTSVIDGRSERYTSTIDFIVLKVNGRWRLHSVRVT | 1.41 |
| DEDRKLFTEATHRLNNVLETGDEDSLLRLMDPNTRYKVNGVELIGREMVKHMFRILMHHWRVKSHDYHDIEIQGDWAVIDSRVDGVIDGRRTHTQLRVESIKIDGKWFDHEVTLE | 0.398 |
| DEDRKMAEHWIRIWYHLVETGDEEEINNFADPHTRMEVNGVEFHGRELVKHSNHKLLRDAGVDKIHVEIHEMRVIGNKVEIHGTIRFNGQEYHFILIVLKVNGRWVIESMKHE | 0.724 |
| DEDRKNEEIAEKIQLRVLKTGDEDELHHLVDPNVKLHIDGREFHGMELSTHLLSRWHEKYKGLKWRLRDSQSQGDFVIIHFHVHVNGKRLRFVVIARKVDGRWVVEEIELE | 1.4 |
| DEDRKTVELAERLLKEMFDTGDEHTMRSLLDPNVRSNIGDWEFIGMDELSRWFEEVLKKLGVDHRSLKIKRSHTIGDKVILRSTLEFQQGDKTMKVDMRLVATKINGRWTVEEVEMK | 0.81 |
| DEDRKVAEEVIRIITHESRTGDWDRISENLDPDARVEVDGRHVHGRERFVEFVLHARIEHSHVHDVSMINGRLKVDTELRGIWNGREIDTQVYIISLKIDGRWYLESIHIS | 1.34 |
| DEDRKYVEELMRKIWEAMHTGDEKFFNNLADPHYRLRIGDKNFIGRDEFHKFLRHIRMTVEDFQERDSDEIDGVIIIIGETTYIFIVNGQEKHHVVEVEIIIIKIDGRWLLHSVNIH | 1.27 |
| DEDRLREQATNFIEAMQTGDTKRVDEQIDKDAQLVVGEKKYEGREQISTFVKEMHHQFDHVRLQRVTVSGNKVLLDVVMDFNGKDLRINIVIHMNNGKISQVQVDYTNPEDAKTARG | 0.914 |
| DEDRQDAEYALRLWLETWVTGDEDTLLRLMDPHYRLEIGEYHRHGRENVVTFLRFLVEHLGIKHTHVEVHDLDSQGDKVRAHTTLHNKYNGVELVIDSEIILTKINGRWYFKSMHFG | 1.2 |
| DEDRRDAEEFIRLFHEAVQTGDEDTLRKFIDPRARIDVNGRILHGREEYLEWMREVLRFFKNVRFEVDLHDVKIVGDKIHVDTTLWTHFNGRDLELKTRVHLEKVNGVWRIKRIDFE | 0.77 |
| DEDRRDAEYARDIWTETLETGDEDLLHELMDPHVRIEIGDKETHGRENYVKKFIRMGVRLKHRNDKHVTIVNGRVHLFGEFHVIINGRHHDLRVEIVIEKVNGRWVVKSIHVH | 0.688 |
| DEDRRDIDDFLRLMLEATHTGDFKSFLELADPNMRIQIGDKEMVGRENIERWFEEDHRQAGIQRVETELRVRSKLLIGNKMHVDIEIRRRYNGVEEVYDVELILLKYNGVWWLEEFRVR | 1.58 |

| Sequence | protease stability score |
| --- | --- |
| DEDRREVQRFIESVVHAIRTGDWRRILELADPNTRLDFDGKVFHGMHVSVKRIIEELEKVKGLRIKDMTTDSVNIYNGVVELDGTLDLEIGDYESHVSAKFVLLKFNGRWFIHEESTR | 1.59 |
| DEDRRHADEVLELFSEAFLTGNEEEMRKLADPHVRIDFNGRLKIGMETYKEEMDRFDHTEMRLESKHVHVFDGRVRIDGRLRIILRIGDKEIRHDHQVDILITKVDGRWIIKSMHIE | 2.53 |
| DEDRRIAEHLIKLYLQSTRTGDENSIRHLMDPNTRVIVGDKDRIGREAAEELLRRVDHLHDYKIEDIRFVGDFIDVEMRVDGEFDGVREHYRVILILFKVDGRWRIHLIEIR | 1.55 |
| DEDRRLMEELTRHRIDLKKTGNEELLRTLADPNTRALVNGKDMHGREQIATWLWQFREDLGVDHIDLEDFHVQGDKMEVHLDWKVNGQRIEVIVIIYIVDGRIKKEEMHFT | 0.416 |
| DEDSELAQIYNDLWRHTMETGDEHLSRRLLDPEVRLIINGREFIGWSLAIEVEHRLFKRFDHVHIDLEHITIQGDKIHTNSTLHIHFNGVTFEHRIHISIKKVNGRWINHTQRIQ | 0.801 |
| DEDSEMVWRMLEDWLHNFLTGNEELLEHLMDPNARFEQGDKEIHGREKIAKFLRKELEDLGVKIEFRDTSIKSINGRAHNDGTNIIRVNGREIRRDTRIDLTVIDGRIKEIRIEIN | 1.28 |
| DEDSEQARKFTELLFESIRTGDWKSLERLFDPNTRLEVGEFEHHGMEEATKFLIELRLEDFHIHSTKIDIQGEWIHIRLDGVERGYIGDKKRDTRSHIRLDNLKINGRWINQRLIIEIR | 1.13 |
| DEDSEVLSRILLHLTHHFSTGDFKEVTEMFDPHARAFVGDKELVGMELLRKFLHDLTKRLGVDHHDLRDDHIEIQGDKLRSEGKLRIDVNGREIKHHVHWILEKIDGRWVIREFRIV | 1.23 |
| DEDSKHVEHLMRLLIRLLITGDEDTLLNLIDPHARIDINGKEVHGREWAEKFIRRFERDLGVKHNHIEHIELQGDKAHVDFSLRIGDKMIQVHIDIWIVDGKLQSIRIKIK | 1.54 |
| DEDSYNSHRALEDLWRDLETGDEENLNKLADPHARVKQGDKEFHGMHHWIHFLESLGITKVHVRIHRIQTQGDKVRIVGEIEFNGRRHHSIIFIEKINGVWLVHKMEIK | 1.41 |
| DEDTARKQVQIYKDNDPNQLVRMFDENARLKVGDQTVDGREELERWVKRLRTRVDRYSYKNVDIQGERVVIDMVMVVDGKQVEFVVEFVVEDGRIKNAKVQARNKDEETKLQEAIG | 1.37 |
| DEDTDWIREMHRRHTEALRTGDEDTLRDLMDPHVRIFQGDKIHIGMHDLAKFLKEWRIKEIRVDIKHIESQGDKLRFSGDVEVHFEFNGKEVDLKLKALIVIVKINGKWVFKEIHHI | 0.862 |
| DEDTEAAIRILEDFTRHILTGDFERARELLDPHTRFDVNGVDLHGMDEVTRLLRIWKKRFDVWESDVHDVRSYDGRIHIDTHLRVRYDGVEEHTRTIFIFNKVNGRWLIEEIRVR | 1.44 |
| DEDTEAAREMLEIIVKSLFTGDEKSLLRLADPNWKLHQGNFSWHGRESVRRFHKEIRVHFDDIRVHRFSTINGRVHIDGHIHITVHIDGQTIHIDSDTTWHMVIINGKMHHAIIIHV | 0.881 |
| DEDTEDLKRLIKLFVDLIRTGDWEELEKLLDPNVRLHFNGRDYHGRELALELMKVFGVDHIQLREVRVVNGKAENRTELIVNGREHEEHVIMEKIDGRWRIRSFEFR | 1.3 |
| DEDTEEMRRFLKAFIRALETGNFEETLRLLDPNVRIRIGDKQLIGREEWHKWRERVDHYEVDDIEIEDMRVIGNKVHVFGRVDIKLIIGDKEHQDRKEVHIIMLKVNGRWLIHEIEVH | 1.91 |
| DEDTEEVRKADKIYIHYLLTGDEHKNNRLADPNVRLHWNGREFHGMELFTEAFREIRHELRFDHITHHHLRMFNGRLDSDTRVDGDINGVRTIFEMKLTLLKVDGRWVLKSTEIR | 1.26 |
| DEDTEEWRHLLEEYREFIETGDEDYLRTMLDPHVRVVVNGRDHHGWKAFNFMLRHIRVRHVHIHDIRLFNGQVEVDSRIDGIVNGRRLIFRLDIVAFKIDGQWIAQSFTII | 1.65 |
